According to patent publication US10149922B1, “Engineered collagen matrices for myocardial therapy” (The Board of Trustees of the Leland Stanford Junior …, priority 2012, dated 2018):

What was measured:
[1] = test system: FSTL1-induced proliferation of immature cardiomyocytes; experiment: Screen of signal transduction inhibitors on FSTL1-induced proliferation; format: cell-based; settings: EMD StemSelect compound library
Protocol: (§1) Experiments were conducted to analyze the proliferative response of early cardiomyocytes to FSTL1. 7 days following FSTL1 treatment, we observed that a remarkable 50% of the differentially expressed transcripts are known targets of the JAK/STAT and interferon related (IFR) pathways.

[2] = test system: mESC-derived immature cardiomyocytes (mCM-d2); experiment: Number of α-actinin+ cardiomyocytes in mCM-d2 cultures; format: cell-based, mouse; settings: 10 ng/ml, eight days of treatment
Protocol: (§2) H2B-mCherry EMCs were maintained in DMEM with 10% FBS and antibiotics/antimycotic. Myh6-Puro^r;Rex-Blast^r mESCs were generated by Lentiviral transduction and Blasticidin selection, and then cultured. For cardiac differentiation, ESCs were cultured in Iscove's Modified Dulbecco Media (IMDM) supplemented with 10% FBS, 2 mM glutamine, 4.5×10^−4 M monothioglycerol, 0.5 mM ascorbic acid, 200 ug/mL transferrin (Roche), 5% protein-free hybridoma media (PFHM-II, Invitrogen) and antibiotics/antimycotic and differentiated as either embryoid bodies (EBs) formation or monolayer. Puromycin was added at differentiation day 10 for two days to enrich cardiomyocyte. The cells were then trypsinized and plated as monolayer cardiomyocytes. Conditioned media were collected after 2 days culturing of confluent EMC cells and passed through 0.22 um filters (Millipore). Control conditioned media were prepared the same way without EMC cells. Recombinant Fstl1 was purchased from ADIPO BIOSCIENCE.
We utilized an epicardial/mesothelial cell line (EMC) to investigate the interaction between epicardium and myocardium.
We applied 10 ng/ml purified hFstl1 onto the mCM-d2 system of ESC-derived early cardiomyocytes, similarly to the coculture and conditioned media experiments described in FIG. 2.

[3] = test system: mESC-derived immature cardiomyocytes (mCM-d2); experiment: Q-RT-PCR of cardiac-specific markers in mCM-d2; format: cell-based, mouse; settings: 10 ng/ml, eight days of treatment
Protocol: as §2
Total RNA was extracted with TRIzol (Invitrogen) and reverse transcribed to cDNA with QuantiTect Reverse Transcription Kit (Qiagen) according to the manufacturer's instructions. cDNA samples synthesized from 100 ng of total RNA were subjected to RT-QPCR with LightCycler 480 SYBR Green I Master kit (Roche) performed with LightCycler 480 Real-Time PCR System (Roche).

[4] = test system: mESC-derived immature cardiomyocytes (mCM-d2); experiment: Kinetic Image Cytometry of rhythmic calcium transients in mCM-d2; format: cell-based, mouse; settings: 10 ng/ml, eight days of treatment, mCM-d2, KIC analysis
Protocol: as §2
Kinetic Image Cytometer from Vala was used as instructed to record intracellular calcium transient with Fluo4 NW calcium indicator (Life Science). Data was processed using Cyteseer (Vala).

mCM-d2 = experiment: phospho-Histone3 proliferation in mCM-d2; format: cell-based, mouse; settings: mCM-d2 treated for 48 hrs
[5] = test system: Neonate Rat Ventricular Cardiomyocytes (NRVC); experiment: Cell cycle profile of neonate rat ventricular cardiomyocytes (flow cytometry); format: cell-based; settings: NRVC treated for 24 hours
Protocol: Ventricular cardiomyocytes were isolated with neonatal rat cardiomyocyte isolation kit (Cellutron) and cultured at 37° C. with 5% CO2. In brief, ventricles were dissected from 1-2-d-old Hsd:SD rats (Sprage Dawley), then digested five times for 15 min each with the enzyme cocktail at 37° C. Cells were pooled, preplated for 90 min on an uncoated dish to remove fibroblasts, and plated on 1% gelatin-coated cell culture plastic dishes in high-serum media (DME/F12 [1:1], 0.2% BSA, 3 mM sodium-pyruvate, 0.1 mM ascorbic acid, 4 mg/liter transferrin, 2 mM L-glutamine, and 5 mg/liter ciprofloxacin supplemented with 10% horse serum and 5% FCS) at 3×10^5 cells/cm2. After 24 h, media was changed to low-serum medium (same but with 0.25% FCS) and cultured until use.
The cell cycle profile of cardiac cells was analyzed as described. In brief, cells were fixed for 1 h at 4° C. with 0.25% PFA and then permeabilized for 15 min at 37° C. with 0.2% Tween 20 before incubation with α-actinin and secondary antibodies (Alexa 488—conjugated anti-mouse Ig) diluted 1:100 in FACS buffer (PBS with 1% goat serum and 0.1% NaN3). Cells were then stained with 10 μg/ml propidium iodide in FACS buffer supplemented with 500 μg/ml of RNAase A. Flow cytometry was performed on BD FACSCanto. FlowJo and ModFit software were used to analyze the results.

early cardiomyocytes = experiment: Whole transcriptome profiling of early cardiomyocytes after FSTL1 treatment; format: cell-based; settings: 7 days following FSTL1 treatment
Protocol: In one approach, whole transcriptome profiling after long and short term treatment is used. Transcriptome profiling is a common approach to gain insight into signaling pathways through the analysis of pathway selective gene expression. Responsive cells selected in the previous experiments are incubated with FSTL1 for 24 hours (short-term) or 7 day (long-term). Transcripts are profiled using microarrays (Affymetrix). Candidate factors are then validated functionally using small molecule inhibitors (if available) and/or siRNA.
as §1

mouse MI model = experiment: Route of FSTL1 delivery in the mouse MI model; format: in vivo; settings: compared to epicardial-localized delivery
Description: Key variables, including time of delivery and the effectiveness following reperfusion. A second critical issue concerns the localized site of FSTL1 delivery. Systemic delivery was not effective in the mouse MI model, compared to epicardial-localized delivery. However, the present the epicardial biomaterial patch itself may provide an effective physical support that could synergize with a systemic FSTL1 delivery. FSTL1 must be delivered epicardial to be effective, and may done by impregnated into the collagen of the patch.

Molecule	effect on FSTL1-induced proliferation [1]	increase in the number of cardiomyocytes [2]	increase in mRNA content of contractile proteins (including Myh6, Mlc2v, and Mlc2a) [3]	increase in the number of cardiomyocytes displaying rhythmic calcium transient [4]	phospho-Histone3+ cells (mCM-d2)	percentage of cells in S/G2/M phase [5]	differentially expressed transcripts that are known targets of the JAK/STAT and interferon related (IFR) pathways (early cardiomyocytes)	efficacy of systemic delivery (mouse MI model)
C[C@H](NC(=O)/C(C#N)=C/c1cccc(Br)n1)c1ccccc1 [WP1066]	blocked							
Fstl1: Secreted glycoprotein encoded by the FSTL1 gene (SEQ ID NO: 1, UniProt Q12841); recombinant protein purchased from ADIPO BIOSCIENCE (protein, listed as Homo sapiens) MWKRWLALALALVAVAWVRAEEELRSKSKICANVFCGAGRECAVTEKGEPTCLCIEQCKPHKRPVCGSNGKTYLNHCELHRDACLTGSKIQVDYDGHCKEKKSVSPSASPVVCYQSNRDELRRRIIQWLEAEIIPDGWFSKGSNYSEILDKYFKNFDNGDSRLDSSEFLKFVEQNETAINITTYPDQENNKLLRGLCVDALIELSDENADWKLSFQEFLKCLNPSFNPPEKKCALEDETYADGAETEVDCNRCVCACGNWVCTAMTCDGKNQKGAQTQTEEEMTRYVQELQKHQETAEKTKRVSTKEI		4 fold	2-3 folds	7-8 folds	significantly more	significantly increased	50%	not effective
